A short description of the data set: protein stability index of a GFP-peptide fusion (GPS, HEK-293T) (PSI 1-6); higher = more stable.
The mark [1] stands for this setting: treatment: DMSO, c terminus: a fixed tail appended.
Where [2] appears, read: treatment: MLN4924 1 uM, 8 h, c terminus: a fixed tail appended.

± gives the standard deviation.
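Note: 24-mer peptide tiles fused after GFP, lentivirally expressed, FACS-sorted into six equal bins by GFP/DsRed ratio, decoded by Illumina sequencing, PSI is the read-weighted mean bin number.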

GGARSLWRGNGINVLKIAPESAIK [SLC25A25]: the protein stability index reads like this: under setting [1], 3.29 ± 0.45; under setting [2], 3.19 ± 0.47.
For the sequence GGDYGLVTAGCGFGKDFRKGLLKK [PPTC7], the protein stability index came out at 3.22 ± 0.36 under setting [1] and 3.6 ± 0.48 under setting [2].
For GGGISCVLQDGCVFEKAGVSISVV [CPOX], the protein stability index by setting is: under setting [1], 2.23 ± 0.63; under setting [2], 2.41 ± 0.48.
In the same order, the values of GGLLTGNEKITMQNLNDRLASYLE [KRT13] are 3.19 ± 0.15 and 3.24 ± 0.13.
In the same order, the values of GGLQHRVTAKTAPDVLRTKPAFIG [PTPRD] are 3.44 ± 0.5 and 3.07 ± 0.34.
In the same order, the values of GGQRSTPLIIAARNGHAKVVRLLL [FEM1B] are 2.16 ± 0.2 and 2.23 ± 0.44.
The sequence GGTGSGDGNKIFLCHCGKAFSHKS [ZBTB22] came in with a protein stability index under setting [1] of 2.27 ± 0.38 and a protein stability index under setting [2] of 2.58 ± 0.41.
In the same order, the values of GHEKTAKSKTRSLLKRMESLKLKS [DLC1] are 3.62 ± 0.17 and 3.89 ± 0.5.
In the same order, the values of GHGSHSFIYYENMLLGVPRLRQLK [PKD2L1] are 2.17 ± 0.12 and 2.27 ± 0.034.
For GIEPLYIKAEPASPDSPKGSSETE [ESRRA], in that order: 5.57 ± 0.21 and 5.36 ± 0.33.
Sequence GIIPYAGIDLAVYETLKNAWLQHY [SLC25A25] came in with a protein stability index under setting [1] of 2.6 ± 0.48 and a protein stability index under setting [2] of 2.65 ± 0.67.
As for GIRLPNGKLKCDICGIICIGPNVL [IKZF1], the protein stability index stood at 2.61 ± 0.48 under setting [1] and 2.46 ± 1 under setting [2].
In the same order, the values of GKDAKTTNGHGGEAAEGKSLGSAL [TRIM29] are 5.36 ± 0.14 and 5.27 ± 0.19.
For GKTTIILRCLDRDEPSKPTLALEY [DYNC2LI1], in that order: 2.25 ± 0.37 and 2.05 ± 0.29.
For GLDYLHSKCKIIHTDIKPENILMC [SRPK2], in that order: 2.06 ± 0.22 and 1.9 ± 0.35.
GLFFPPQLNGTANDTAGPELPDPL [NFE2L1] gave a protein stability index under setting [1] of 4.29 ± 0.27 and a protein stability index under setting [2] of 4.45 ± 0.23.
Regarding GNQESKLIILASGGPQALVNIMRT [CTNNB1], the protein stability index by setting is: under setting [1], 2.21 ± 0.57; under setting [2], 2.26 ± 0.69.
As to GPIQLWQFLLELLSDKSCQSFISW [ETS2], the protein stability index was 2.62 ± 0.5 under setting [1] and 2.73 ± 0.6 under setting [2].
In the same order, the values of GPLLDSLYWTKWYNNQSLGHGSHS [PKD2L1] are 2.51 ± 0.16 and 2.47 ± 0.38.
For GPSRSRHRRRSRERGPYRTRKHAH [CLK3], in that order: 4.92 ± 0.24 and 4.8 ± 0.38.
GQLRVFGAGLLSSISELKHALSGH [TPH1]: the protein stability index reads like this: under setting [1], 2.24 ± 0.27; under setting [2], 2.13 ± 0.19.
GRFCGQQNPPVIKSSGRFLWIKFF [NETO1]: the protein stability index reads like this: under setting [1], 2.1 ± 0.84; under setting [2], 2.39 ± 1.1.
Take GRLAMDEIFQKPFQTLMFLVRDWS [ATL3]: the protein stability index was 2.25 ± 0.55 under setting [1] and 2.09 ± 0.21 under setting [2].
For GRSWPSAPDDSKAQAHRIHIDPEI [PDLIM4], in that order: 4.22 ± 0.33 and 4.31 ± 0.07.
In the same order, the values of GRTLIGFLRSIDQFANLVLHQTVE [LSM1] are 3.37 ± 0.64 and 2.75 ± 0.5.
In the same order, the values of GSEAAVIPLDLGCTQVTQDGDIPN [FAM189A2] are 5.05 ± 0.39 and 5.26 ± 0.5.
As for GSLGPVPVLRFDALWQVLARDCFA [TRIM14], the protein stability index came to 2.42 ± 0.83 under setting [1] and 2.89 ± 0.43 under setting [2].
GSNRSGSDRRKEKDPKAGDSKSGG [DVL3]: the protein stability index reads like this: under setting [1], 5.63 ± 0.21; under setting [2], 5.47 ± 0.23.
Consider GSSSSSSSSINSPDRASGPEGSLS [FAM104A], for which the protein stability index reads like this: under setting [1], 5.5 ± 0.22; under setting [2], 5.45 ± 0.2.
For GSYGVVFKCRNKTSGQVVAVKKFV [CDKL4], in that order: 2.02 ± 0.48 and 2.16 ± 0.46.
As for GSYNGQIGWFPSNYVLEEVDEAAA [NCK2], the protein stability index was determined as 4.65 ± 0.29 under setting [1] and 4.66 ± 0.36 under setting [2].
In the same order, the values of GTDGYMPRELASMSLVLHGNNLLV [KLHDC10] are 2.72 ± 0.68 and 2.35 ± 0.56.
Turning to GTEQSRGLGHGSTSRGGPWVGTGL [CPOX], the protein stability index is, setting by setting: under setting [1], 3.27 ± 0.84; under setting [2], 3.6 ± 0.26.
For GTLSMGVPQIFKYGETCFPKGRFE [ZNF24], in that order: 2.83 ± 0.11 and 2.56 ± 0.27.
In the same order, the values of GVCYSESQSSASQPRLSYAEMAED [CLCN6] are 5.11 ± 0.23 and 5.28 ± 0.31.
For GVSEILLKTQMKMSLKCLAARAVR [FEM1B], in that order: 2.65 ± 0.56 and 2.58 ± 0.26.
Sequence GYDGLNILNSVEKYDPHTGHWTNV [KLHL12] came in with a protein stability index under setting [1] of 2.75 ± 0.42 and a protein stability index under setting [2] of 3.05 ± 0.19.
For GYFFPTSARDCKFTGNFFYNYMMG [DHCR7], in that order: 2.36 ± 0.38 and 2.36 ± 0.21.
In the same order, the values of HAPGVPKILVGNRLHLAFKRQVPR [RAB40A] are 2.58 ± 0.28 and 2.88 ± 0.31.
For HCIQQILEAVLHCHQMGVVHRDLK [CAMK2B], in that order: 2.6 ± 0.7 and 2.95 ± 0.37.
Take HDFLSDLFSDDYGGKNCKKPAEYG [CEBPB]: the protein stability index was found to be 3.83 ± 0.16 under setting [1] and 3.8 ± 0.17 under setting [2].
For HDGKPSEGSYRIHVLHHGTGKWYE [USP39], the protein stability index runs as follows: under setting [1], 2.71 ± 0.2; under setting [2], 2.88 ± 0.16.
For HDHLTLSVSRPEGRSWPSAPDDSK [PDLIM4], in that order: 5.15 ± 0.093 and 5.06 ± 0.072.
Turning to HEVLLCSDLVKAYQRCVSAAHKG [CHCHD6], the protein stability index came out at 2.56 ± 0.75 (treatment: DMSO, c terminus: native) and 2.27 ± 0.45 (treatment: MLN4924 1 uM, 8 h, c terminus: native).
For the sequence HFKKTKKMGGKDFSFRYQQELEEE [ATL3], the protein stability index runs as follows: under setting [1], 2.59 ± 0.56; under setting [2], 3.54 ± 0.81.
For HFQPNSPASDLEAALEAAGEGLNV [NANOGP8], the protein stability index is 5.05 ± 0.26 under setting [1] and 5.24 ± 0.28 under setting [2].
In the same order, the values of HFRPRFHPLPTVIIVNLLWFIHLV [TMEM192] are 2.63 ± 0.48 and 2.82 ± 0.79.
In the same order, the values of HGQLDDLIFIFYKNGLPSPERSYV [PPEF2] are 2.88 ± 0.41 and 2.35 ± 0.44.
In the same order, the values of HGRARIARLMLESEYRSDIINAKS [ASB7] are 3.05 ± 0.3 and 3.18 ± 0.23.
As for HGRGTEVLLEEPLPLETARESPSF [ZNF263], the protein stability index reads like this: under setting [1], 4.69 ± 0.28; under setting [2], 4.81 ± 0.25.
For HKKTTHKLNCDPSRIYKPQTRLKR [DFFB], in that order: 4.07 ± 0.28 and 4.22 ± 0.25.
For HKRAIMPYGVYKKQQKDPSEEAAV [ATE1], the protein stability index was 4.3 ± 0.32 under setting [1] and 4.44 ± 0.11 under setting [2].

Source of the values: the supplement of paper PMC10567573.
